# T1: recombinant human PVRIG protein (PVRIG extracellular full-length protein) (human, UniProt Q6DKI7 41-171)
# T1 construct: also called recombinant PVRIG protein; soluble PVRIG
# T1 sequence: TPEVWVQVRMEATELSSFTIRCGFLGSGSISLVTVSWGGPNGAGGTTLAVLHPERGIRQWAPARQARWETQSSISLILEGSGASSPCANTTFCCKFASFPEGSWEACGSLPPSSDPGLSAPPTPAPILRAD
# T2: human PVRIG on Jurkat-hPVRIG cells (human, UniProt Q6DKI7 41-326)
# T2 construct: whole, on cells; also called PVRIG on cell surface; effector cells stably expressing PVRIG
# T2 sequence (looked up): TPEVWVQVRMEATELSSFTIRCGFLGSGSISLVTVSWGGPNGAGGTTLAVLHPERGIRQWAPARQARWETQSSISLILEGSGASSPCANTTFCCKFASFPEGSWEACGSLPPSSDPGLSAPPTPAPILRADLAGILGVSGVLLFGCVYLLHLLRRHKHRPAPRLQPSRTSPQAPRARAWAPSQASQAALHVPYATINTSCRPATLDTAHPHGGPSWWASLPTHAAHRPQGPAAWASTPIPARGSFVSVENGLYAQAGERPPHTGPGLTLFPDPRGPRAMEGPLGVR
# T3: PVRIG-hFc protein (human, UniProt Q6DKI7 41-171, limits assumed)
# T3 construct: also called human PVRIG protein; not shown: human Fc (hFc)
# T3 sequence (looked up): T1 sequence
# T4: recombinant cynomolgus monkey (Cyno) PVRIG protein (cynomolgus monkey, UniProt A0A2K5WVV8 41-171)
# T4 construct: also called soluble cynomolgus monkey PVRIG
# T4 sequence: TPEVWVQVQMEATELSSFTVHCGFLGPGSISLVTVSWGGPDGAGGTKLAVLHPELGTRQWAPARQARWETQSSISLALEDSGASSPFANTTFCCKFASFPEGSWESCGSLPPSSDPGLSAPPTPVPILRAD
# T5: cynomolgus monkey PVRIG on 293T-cynoPVRIG cells (cynomolgus monkey, UniProt A0A2K5WVV8 41-322)
# T5 construct: whole, on cells; also called full-length monkey PVRIG
# T5 sequence: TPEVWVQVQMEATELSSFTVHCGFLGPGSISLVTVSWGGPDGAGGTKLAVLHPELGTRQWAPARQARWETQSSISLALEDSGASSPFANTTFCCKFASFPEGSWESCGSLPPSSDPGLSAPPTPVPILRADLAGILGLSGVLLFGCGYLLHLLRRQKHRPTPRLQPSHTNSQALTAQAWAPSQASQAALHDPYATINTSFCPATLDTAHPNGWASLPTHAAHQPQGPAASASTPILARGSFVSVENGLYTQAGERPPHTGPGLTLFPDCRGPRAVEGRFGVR
# T6: human PVRIG-His protein (human, UniProt Q6DKI7 41-171, limits assumed)
# T6 construct: not shown: His tag
# T6 sequence (looked up): T1 sequence
# B1: 21F10C10-hIgG1 (antibody, V domains shown)
# VH: QVQLQQSGAELVRPGTSVKVSCKASGYAFINNFIEWVKQRPGQGLEWIGVINPGSGDANYNEKFKGKATLTADKSSTTAYIQLSSLTSDDSAVYFCASHWLAYWGQGTLVTVSA
# VL: DIVMTQSPSSLSVSAGEKVTMSCKSSQSLLSSGNQKNYLAWYQQKPGQPPKLLIYGASTRESGVPDRFTGSGSGTDFTLTISSVQAEDLAVYYCQNGHFYPYTFGGGTKLEIK
# notes: also called 21F10C10 chimeric antibody
# B2: 43F7C9-hIgG1 (antibody, V domains shown)
# VH: DVQLQESGPGLVKPSQSLSLTCTVTGYSITSDYAWNWIRQFPGNRLEWMGYIRYNGNTNYNPSLKSRISITRDTSKNQFFLQLNSVTTEDTATYYCAIIYYDYDGFVYWGQGTLVTVSA
# VL: DILLTQSPATLSVTPGETVSLSCRASQNVYENLHWYQQKSHRSPRLLIKFASDSISGIPSRFTGSGSGTDYTLSINSVKPEDEGIYYCLQLYSTPYTFGGGTELEIK
# notes: also called 43H7C9-hIgG1; 43H7C9
# B3: Hab1B10E8.6 (antibody, V domains shown)
# VH: QVQLVQSGAEVKKPGASVKVSCKASGYSFPSYWMHWVRQAPGQGLEWIGEINPSNGLTNYNEQFRNRVTMTVDTSTSTVYMELSSLRSEDTAVYYCARHHGSTYYALDSWGQGTLVTVSS
# VL: DIVMTQSPDSLAVSLGERATINCKSSQSLLNSINQKNFLAWYQQKPGQPPKLLVYFASTRESGVPDRFSGSGSGTDFTLTISSLQAEDVAVYFCQQHYSTPPTFGGGTKLEIK
# notes: Humanized antibody; also called Hab1B10E8-VH.1b + Hab1B10E8-VL.1b
# B4: Hab21F10C10.12 (antibody, V domains shown)
# VH: QVQLVQSGAEVKKPGASVKVSCKASGYTFINNFIEWVRQAPGQGLEWMGVINPGSGDANYAQKFQGRVTMTRDTSISTAYMELSRLRSDDTAVYYCASHWLAYWGQGTTVTVSS
# VL: EIVMTQSPPTLSLSPGERVTLSCRSSQSLLSSGNQKNYLSWYQQKPGQAPRLLIYGASTRETGIPARFSGSGSGTDFTLTISSLQPEDFAVYYCQNGHFYPYTFGGGTKLEIK
# notes: Humanized antibody; also called Hab21F10C10-VH.1d + Hab21F10C10-VL.1c
# B5: Hab43F7C9.12 (antibody, V domains shown)
# VH: QVQLQESGPGLVKPSETLSLTCTVSGYSISSDYAWNWIRQPPGKGLEWIGYIRYNGNTNYNPSLKSRVTISVDTSKNQFSLKLSSVTAADTAVYYCAIIYYDYDGFVYWGQGTTVTVSS
# VL: DIQMTQSPSSLSASVGDRVTITCRASQNVYENLHWYQQKPGKAPKLLIKFASDSISGVPSRFSGSGSGTDFTLTISSLQPEDFATYYCLQLYSTPYTFGGGTKLEIK
# notes: Humanized antibody; also called Hab43F7C9-VH.1d + Hab43F7C9-VL.1c; 43H7C9.12
# B6: SRF813-IgG1 (antibody, V domains shown)
# VH: QVQLVQSGAEVKKPGSSVKVSCKASGGTFSSAAISWVRQAPGQGLEWMGNIIPIVGIANYAQKFQGRVTITADESTSTAYMELSSLRSEDTAVYYCARDTGRGYTRHFWFDPWGQGTLVTVSS
# VL: DIQMTQSPSSLSASVGDRVTITCRASQSISSYLNWYQQKPGKAPKLLIYAASSLQSGVPSRFSGSGSGTDFTLTISSLQPEDFATYYCQQSDILYTFGGGTKVEIK
# Biological target: T1, recombinant human PVRIG protein (PVRIG …)
# Test: ELISA, PVRIG extracellular protein coated at 500 ng/ml
# Procedure: VH and VL were respectively constructed into a eukaryotic expression vector comprising hIgG1-kappa constant region. The obtained eukaryotic expression vector was transiently transfected into HEK-293 cells and cultured for 6 days. The culture supernatant was harvested and purified by Protein A to obtain target antibodies, which were named 21F10C10-hIgG1 and 43F7C9-hIgG1, respectively. The affinity of the antibodies to the recombinant PVRIG protein was determined by ELISA. The PVRIG extracellular full-length protein diluted to a concentration of 500 ng/ml was coated on the ELISA plate. The plate was washed 3 times with PBST buffer, and then 200 μl of PBS buffer containing 2% BSA was added, and the plate was blocked at 37° C. for 2 h. After the blocking was completed, the plate was washed 3 times with PBST buffer; 3-fold gradient dilutions of the test antibody (0-33.3 nM) were added, incubated at 37° C. for 2 h; then the plate was washed 3 times with PBST buffer. Horseradish peroxidase-labeled goat anti-human antibody was added, incubated at 37° C. for 1 h; then the plate was washed three times with PBST buffer. TMB single-component color developing solution was added for color development, reading the absorbance value after adding the stop solution.
row,Binder,EC50
1,B1,0.122 nM
2,B2,0.29 nM

# Biological target: T2, human PVRIG on Jurkat-hPVRIG cells
# Test: flow cytometry on Jurkat-hPVRIG cells
# Procedure: The cells were inoculated at a density of 2×10⁶/ml in 96-well plate, 100 μl/well. 4-fold gradient dilutions of antibodies (0-66.7 nM) were added to incubate at 4° C. for 1 h. Goat anti-human secondary antibody was added, and the cells were labeled in the dark at 4° C. for 45 min. After the cells were collected and washed, the fluorescence intensity of the cells was read by flow cytometry. […] At the same time, the affinity of Hab43F7C9.12 in recognizing cell surface PVRIG is better than that of the control molecule SRF813.
row,Binder,EC50
1,B3,0.0501 nM
2,B4,0.0553 nM
3,B5,0.0178 nM
4,B6,0.0497 nM

# Biological target: T3, PVRIG-hFc protein
# Test: blocking ELISA: antibody titrated against PVRIG-hFc binding to coated CD112-His
# Procedure: The ELISA method was used to determine the ability of humanized PVRIG antibody to block the binding of human CD112 protein to human PVRIG protein. The CD112-His protein was diluted to a concentration of 1 μg/ml, and coated on the ELISA plate. A 3-fold gradient dilution of the antibody (0-133 nM) was mixed with the PVRIG-hFc protein and added to the coated ELISA plate to incubate at 37° C. for 1 hour. After washing the plate, the HRP-labeled goat anti-human Fc antibody was added to incubate at 37° C. for 1 hour. After washing the plate, the color developing solution was added, then adding the stop solution after 5 minutes and reading the results. The blocking results of the antibodies obtained are shown in FIG. 6 and Table 12 after GraphPad fitting. […] At the same time, Hab1B10E8.6, Hab21F10C10.12 and Hab43F7C9.12 have better ELISA blocking ability than the control molecule SRF813.
row,Binder,EC50
1,B3,0.285 nM
2,B4,0.226 nM
3,B5,0.258 nM
4,B6,0.431 nM

# Biological target: T3, PVRIG-hFc protein
# Test: blocking flow cytometry: antibody titrated against PVRIG-hFc (1 ug/ml) binding to 293T-CD112 cells
# Procedure: The cells were washed three times with FACS buffer, and then labeled with Alexa Fluor 488-labeled goat anti-human IgG antibody at 4° C. in the dark for 50 min. Then the cells were washed three times with FACS buffer, and the fluorescence intensity of the cells was read by flow cytometry.
row,Binder,EC50
1,B3,2.56 nM
2,B4,2.52 nM
3,B5,1.46 nM

# Biological target: T4, recombinant cynomolgus monkey (Cyno) …
# Test: ELISA, Cyno-PVRIG protein coated at 500 ng/ml
# Procedure: The affinity of humanized antibody to recombinant cynomolgus monkey (Cyno) PVRIG protein was determined by ELISA. The Cyno-PVRIG protein was diluted to 500 ng/ml, and coated on the ELISA plate. After blocking, a 3-fold gradient dilution of the antibody (0-33.3 nM) was added. After incubation with goat anti-human secondary antibody for 1 hour, the plate was washed and the color was developed to read.
row,Binder,EC50
1,B3,0.141 nM
2,B4,0.364 nM
3,B5,0.0797 nM

# Biological target: T5, cynomolgus monkey PVRIG on …
# Test: flow cytometry on 293T-cynoPVRIG cells
# Procedure: The cells were seeded in a 96-well plate at a density of 2×10⁶, 100 μl/well, then washed three times with FACS buffer and the supernatant was discarded. Antibodies diluted with PBS buffer (0-2.5 nM) in a gradient were added to incubate at 4° C. for 1 h. The cells were washed three times with FACS buffer, and then labeled with Alexa Fluor 488-labeled goat anti-human IgG antibody at 4° C. in the dark for 45 min. The cells were washed three times with FACS buffer, and the fluorescence intensity of the cells was read by flow cytometry.
row,Binder,EC50
1,B3,0.124 nM
2,B4,0.267 nM
3,B5,0.108 nM
4,B6,0.15 nM

# Biological target: T1, recombinant human PVRIG protein (PVRIG …)
# Test: ELISA, human PVRIG protein coated at 500 ng/ml
# Procedure: The affinity of humanized antibody to recombinant human PVRIG protein was determined by ELISA. The PVRIG protein was diluted to 500 ng/ml, and coated on the ELISA plate. After blocking, 3-fold gradient dilution of antibody (0-66.7 nM) was added, then performed color development and reading after incubation with goat anti-human secondary antibody.
row,Binder,EC50
1,B3,0.0869 nM
2,B4,0.165 nM
3,B5,0.145 nM

# Biological target: T6, human PVRIG-His protein
# Test: BLI (Fortebio), PVRIG-His on HIS1K biosensor, antibody as analyte
# Procedure: The HIS1K biosensor was used, and human PVRIG-His protein was immobilized on the biosensor to a binding response threshold of 0.3 nm. After a 120 s baseline step, the sensor was immersed in an anti-PVRIG antibody diluted with 0.02% PBST buffer, with a starting antibody concentration of 25 nM, performing gradient dilution of 2-fold concentration with 7 gradients set. The binding and dissociation time of the immobilized substance and the analyte were 120 s and 300 s, respectively. The affinity data of antigen and antibody was calculated by regression analysis software based on the binding curve.
Binder,Kd,koff,kon
B3,< 1 pM,< 1e-07 s⁻¹,782000 M⁻¹ s⁻¹
B4,< 1 pM,< 1e-07 s⁻¹,837000 M⁻¹ s⁻¹
B5,< 1 pM,< 1e-07 s⁻¹,963000 M⁻¹ s⁻¹

# Biological target: T2, human PVRIG on Jurkat-hPVRIG cells
# Test: cell-based or functional assay
row,Binder,EC50 (nM) of reporter genes
1,B3,0.184 nM
2,B4,0.164 nM
3,B5,0.0651 nM
4,B6,0.963 nM
